Measured values published in paper PMC6978801, “Structural Basis of Teneurin-Latrophilin Interaction in Repulsive Guidance of Migrating Neurons” (Cell, 2020).
Blank lines part the entries; values can stand above or below the molecule they belong to.

Key:
FLRT2 on K-562 cells = FLRT2 on K-562 cells (UniProt Q8BLU0); experiment: K-562 cell aggregation assay; settings: n = 3; parent: est. 47; read off a plot
Ten2 on K-562 cells = Ten2 on K-562 cells (UniProt Q9DER5); experiment: K-562 cell aggregation assay; settings: n = 3; parent: est. 56; read off a plot
Lphn1 on K-562 cells = Lphn1 on K-562 cells (UniProt Q80TR1); experiment: K-562 cell aggregation assay; settings: n = 3; parent: est. 56; read off a plot
murine Lphn1 (ecto) = experiment: cell-based binding assay (immunofluorescence, HEK293 cells); settings: n = 12; surface chicken Ten2LT, soluble His-tagged murine Lphn1 (ecto); read off a plot
murine Lphn2 (ecto) = murine Lphn2 (ecto) (UniProt Q8JZZ7); experiment: as above; settings: n = 12; surface chicken Ten2LT, soluble His-tagged murine Lphn2 (ecto); read off a plot
[1] = target: murine Latrophilin 1 ectodomain (mLphn1 ecto) (mouse) (UniProt Q80TR1); experiment: SPR; Biacore T200, equilibrium binding at 25 °C, PBS + 0.005% polysorbate 20 pH 7.5; Latrophilin constructs biotinylated at a C-terminal Avi-tag and coupled to a streptavidin-coated CM5 chip (670-730 RU ecto, 220 RU Lec-Olf); Ten2 ectodomains injected; apparent KD from a 1:1 Langmuir fit, analyte concentration calculated as monomer; Teneurin is dimeric, values indicative only
[2] = target: murine Latrophilin 2 ectodomain (mLphn2 ecto) (mouse) (UniProt Q8JZZ7); experiment: as above
Sequence of murine Latrophilin 2 ectodomain (mLphn2 ecto) (mouse) (Q8JZZ7 26-1487): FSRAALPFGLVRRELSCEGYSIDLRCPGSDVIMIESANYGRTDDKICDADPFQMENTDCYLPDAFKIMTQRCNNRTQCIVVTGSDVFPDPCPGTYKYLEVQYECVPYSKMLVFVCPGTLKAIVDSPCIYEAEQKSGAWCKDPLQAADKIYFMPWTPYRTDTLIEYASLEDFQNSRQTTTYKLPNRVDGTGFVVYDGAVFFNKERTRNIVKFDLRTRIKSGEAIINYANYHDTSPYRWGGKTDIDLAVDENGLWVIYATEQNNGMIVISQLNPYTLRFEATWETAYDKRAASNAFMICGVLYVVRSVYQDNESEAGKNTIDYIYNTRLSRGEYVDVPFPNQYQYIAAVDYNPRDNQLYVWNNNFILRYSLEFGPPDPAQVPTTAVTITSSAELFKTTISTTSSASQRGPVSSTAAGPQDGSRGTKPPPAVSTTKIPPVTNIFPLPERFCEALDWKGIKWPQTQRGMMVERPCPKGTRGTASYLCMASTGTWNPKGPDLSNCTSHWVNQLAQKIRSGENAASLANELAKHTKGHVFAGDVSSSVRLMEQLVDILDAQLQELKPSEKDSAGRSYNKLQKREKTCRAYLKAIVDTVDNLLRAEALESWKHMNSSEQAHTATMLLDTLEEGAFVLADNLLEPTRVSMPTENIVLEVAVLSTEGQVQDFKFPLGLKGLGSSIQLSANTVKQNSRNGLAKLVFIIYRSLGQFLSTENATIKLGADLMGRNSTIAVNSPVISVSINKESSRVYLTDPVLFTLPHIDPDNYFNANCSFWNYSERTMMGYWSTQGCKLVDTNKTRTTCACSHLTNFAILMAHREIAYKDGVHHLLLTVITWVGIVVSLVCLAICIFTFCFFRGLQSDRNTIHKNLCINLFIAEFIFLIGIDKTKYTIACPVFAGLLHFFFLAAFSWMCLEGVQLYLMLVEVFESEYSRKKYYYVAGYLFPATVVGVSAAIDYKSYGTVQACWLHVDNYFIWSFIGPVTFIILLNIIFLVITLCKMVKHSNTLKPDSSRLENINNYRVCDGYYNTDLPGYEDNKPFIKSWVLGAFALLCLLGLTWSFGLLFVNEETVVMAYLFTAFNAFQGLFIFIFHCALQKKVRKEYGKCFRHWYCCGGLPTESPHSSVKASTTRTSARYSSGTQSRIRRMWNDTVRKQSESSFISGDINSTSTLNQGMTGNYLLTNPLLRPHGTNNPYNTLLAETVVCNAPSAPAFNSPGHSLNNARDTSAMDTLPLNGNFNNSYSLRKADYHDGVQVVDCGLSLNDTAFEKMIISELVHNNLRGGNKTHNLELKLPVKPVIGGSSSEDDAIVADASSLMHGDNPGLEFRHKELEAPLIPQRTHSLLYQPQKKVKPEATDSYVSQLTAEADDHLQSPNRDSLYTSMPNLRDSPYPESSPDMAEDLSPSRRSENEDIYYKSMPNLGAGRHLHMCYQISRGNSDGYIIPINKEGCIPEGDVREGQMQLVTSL

[3] = target: murine Latrophilin 3 ectodomain (mLphn3 ecto) (mouse) (UniProt Q80TS3); experiment: as above
Sequence of murine Latrophilin 3 ectodomain (mLphn3 ecto) (mouse) (Q80TS3 20-1537): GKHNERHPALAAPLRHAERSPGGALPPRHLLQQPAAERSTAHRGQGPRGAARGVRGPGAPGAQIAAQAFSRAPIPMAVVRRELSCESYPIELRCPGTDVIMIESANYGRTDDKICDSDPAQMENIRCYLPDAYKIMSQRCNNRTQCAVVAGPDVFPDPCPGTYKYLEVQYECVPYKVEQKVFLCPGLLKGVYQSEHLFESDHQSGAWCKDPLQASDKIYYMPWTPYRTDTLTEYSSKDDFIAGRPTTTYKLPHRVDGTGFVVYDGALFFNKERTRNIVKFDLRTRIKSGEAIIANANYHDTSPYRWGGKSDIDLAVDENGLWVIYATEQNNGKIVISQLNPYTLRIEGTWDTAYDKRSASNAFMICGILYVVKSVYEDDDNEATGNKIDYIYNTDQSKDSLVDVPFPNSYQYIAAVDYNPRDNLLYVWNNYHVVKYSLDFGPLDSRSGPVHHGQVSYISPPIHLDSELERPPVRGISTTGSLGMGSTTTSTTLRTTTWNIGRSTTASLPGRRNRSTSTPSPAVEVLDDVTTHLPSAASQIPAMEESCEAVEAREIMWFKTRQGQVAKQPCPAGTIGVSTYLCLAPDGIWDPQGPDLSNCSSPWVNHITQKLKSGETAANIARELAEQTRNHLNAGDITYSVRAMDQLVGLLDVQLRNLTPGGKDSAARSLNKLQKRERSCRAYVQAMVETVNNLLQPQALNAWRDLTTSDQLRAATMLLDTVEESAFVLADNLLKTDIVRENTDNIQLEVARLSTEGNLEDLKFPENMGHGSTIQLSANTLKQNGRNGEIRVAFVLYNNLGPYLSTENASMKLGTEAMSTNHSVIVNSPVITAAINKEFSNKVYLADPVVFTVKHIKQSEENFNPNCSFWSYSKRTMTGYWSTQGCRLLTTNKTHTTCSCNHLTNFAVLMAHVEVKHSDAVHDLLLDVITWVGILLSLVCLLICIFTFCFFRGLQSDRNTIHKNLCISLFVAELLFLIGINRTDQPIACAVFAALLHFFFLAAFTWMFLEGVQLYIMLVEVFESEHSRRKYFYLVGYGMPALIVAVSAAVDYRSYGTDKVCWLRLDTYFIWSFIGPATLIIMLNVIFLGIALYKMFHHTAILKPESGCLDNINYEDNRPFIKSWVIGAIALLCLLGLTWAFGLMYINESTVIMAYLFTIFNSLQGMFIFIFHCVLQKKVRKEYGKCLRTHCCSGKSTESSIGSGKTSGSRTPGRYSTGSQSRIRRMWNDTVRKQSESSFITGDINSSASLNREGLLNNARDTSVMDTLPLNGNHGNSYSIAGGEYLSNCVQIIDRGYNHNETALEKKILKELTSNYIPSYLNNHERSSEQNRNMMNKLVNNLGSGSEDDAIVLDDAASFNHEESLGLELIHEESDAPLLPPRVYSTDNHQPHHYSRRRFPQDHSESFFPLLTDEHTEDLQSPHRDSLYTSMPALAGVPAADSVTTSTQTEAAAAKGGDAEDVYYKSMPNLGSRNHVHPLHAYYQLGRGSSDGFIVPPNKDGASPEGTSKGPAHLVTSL

[4] = target: chicken Ten2 ectodomain, soluble (UniProt Q9DER5); experiment: cell-based binding assay (immunofluorescence, HEK293 cells); settings: n = 12, parent: est. 58, read off a plot
[5] = target: mouse Teneurin 2 protein, soluble (UniProt Q9WTS5); experiment: as above; settings: n = 12; surface murine Lphn1TL, soluble His-tagged murine Ten2 (ecto); parent: est. 27; read off a plot
[6] = target: T1, murine Teneurin 2 ectodomain (mTen2 ecto) (mouse, UniProt Q9WTS5 401-2764); experiment: SPR; Biacore T200, equilibrium binding at 25 °C, PBS + 0.005% polysorbate 20 pH 7.5; Latrophilin constructs biotinylated at a C-terminal Avi-tag and coupled to a streptavidin-coated CM5 chip (670-730 RU ecto, 220 RU Lec-Olf); Ten2 ectodomains injected; apparent KD from a 1:1 Langmuir fit, analyte concentration calculated as monomer; Teneurin is dimeric, values indicative only; settings: both partners purified
T1 construct: Teneurin-2 (Ten2), mouse, soluble ectodomain ('ecto'); analyte concentration was calculated as monomer; also called mouse Ten2 (ecto); mouse Teneurin 2 protein; source: HEK293 cells, purified (HisTrap, Superdex200 size exclusion)

[7] = target: T2, chicken Teneurin 2 ectodomain (gTen2 ecto) (chicken, UniProt Q9DER5 429-2802); experiment: as above; settings: both partners purified
T2 construct: Teneurin-2 (Ten2), chicken (Gallus gallus), soluble ectodomain ('ecto'); analyte concentration was calculated as monomer; also called chicken Ten2 (ecto); source: HEK293 cells, purified (HisTrap, Superdex200 size exclusion)

Sequence of FLRT2 on K-562 cells (Q8BLU0 36-660): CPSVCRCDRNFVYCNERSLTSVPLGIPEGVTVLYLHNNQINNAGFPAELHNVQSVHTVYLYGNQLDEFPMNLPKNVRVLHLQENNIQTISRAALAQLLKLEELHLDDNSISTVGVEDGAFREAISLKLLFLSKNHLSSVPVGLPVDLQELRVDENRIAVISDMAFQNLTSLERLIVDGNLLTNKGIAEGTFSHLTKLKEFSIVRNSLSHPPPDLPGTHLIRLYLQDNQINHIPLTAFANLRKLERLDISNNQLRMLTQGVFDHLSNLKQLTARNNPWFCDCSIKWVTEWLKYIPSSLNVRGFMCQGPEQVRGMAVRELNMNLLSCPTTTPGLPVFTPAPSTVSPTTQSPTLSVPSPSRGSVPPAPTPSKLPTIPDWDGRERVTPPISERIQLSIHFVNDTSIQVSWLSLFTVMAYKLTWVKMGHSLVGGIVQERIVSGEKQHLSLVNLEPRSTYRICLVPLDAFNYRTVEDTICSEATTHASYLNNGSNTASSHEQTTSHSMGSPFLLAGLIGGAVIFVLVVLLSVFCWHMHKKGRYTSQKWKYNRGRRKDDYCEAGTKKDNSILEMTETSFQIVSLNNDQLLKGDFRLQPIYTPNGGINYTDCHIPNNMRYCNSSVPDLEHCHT

Molecule: chicken Ten2, transmembrane construct at the surface of HEK293 cells (from UniProt Q9DER5) 1892N; K1894T
- response (murine Lphn1 (ecto)): 0%
- response (murine Lphn2 (ecto)): 2%

Molecule: chicken Teneurin 2 ectodomain (gTen2 ecto) (from UniProt Q9DER5 429-2802) (domain or fragment)
- Kd [1]: 40 nM
- Kd [2]: 60 nM
- Kd [3]: 680 nM

Molecule: murine Lphn1 (mVenus-tagged, surface of HEK293 cells) L39A; P51G; D54A; D67A; D72A
- response ([4]; surface murine Lphn1TL2, soluble His-tagged chicken Ten2 (ecto)): 1.5%

Molecule: murine Teneurin 2 ectodomain (mTen2 ecto) (from UniProt Q9WTS5 401-2764) (domain or fragment)
- Kd [1]: 35 nM
- Kd [2]: 100 nM
- Kd [3]: 490 nM

Next, values leading:

- other: aggregation (%) (FLRT2 on K-562 cells): 68%
- other: aggregation (%) (Ten2 on K-562 cells): 5%
Molecule: Lphn1 on K-562 cells (from UniProt Q80TR1) E39N

- other: aggregation (%) (Lphn1 on K-562 cells): 5%
Molecule: Ten2 on K-562 cells (from UniProt Q9DER5) 1892N; K1894T

- response ([4]; surface murine Lphn1TL, soluble His-tagged chicken Ten2 (ecto)): 0%
- response [5]: 0%
Molecule: murine Lphn1 (mVenus-tagged, surface of HEK293 cells) E39N

- Kd [6]: 290 nM
- Kd [7]: 590 nM
B1: murine Latrophilin 1 Lec-Olf domains (mLphn1 Lec-Olf) (domain or fragment, mouse, UniProt Q80TR1 29-395, looked up)
chain: GLPFGLMRRELACEGYPIELRCPGSDVIMVENANYGRTDDKICDADPFQMENVQCYLPDAFKIMSQRCNNRTQCVVVAGSDAFPDPCPGTYKYLEVQYDCVPYIFVCPGTLQKVLEPTSTHESEHQSGAWCKDPLQAGDRIYVMPWIPYRTDTLTEYASWEDYVAARHTTTYRLPNRVDGTGFVVYDGAVFYNKERTRNIVKYDLRTRIKSGETVINTANYHDTSPYRWGGKTDIDLAVDENGLWVIYATEGNNGRLVVSQLNPYTLRFEGTWETGYDKRSASNAFMVCGVLYVLRSVYVDDDSEAAGNRVDYAFNTNANREEPVSLAFPNPYQFVSSVDYNPRDNQLYVWNNYFVVRYSLEFGPPD
modifications: biotinylated enzymatically at the C-terminal Avi-tag
notes: The limits 29-395 are printed for the Lec-Olf construct that was crystallised; source: HEK293 cells; biotinylated enzymatically; not shown: Avi-tag, C-terminal, kept
